Assay results published in the supplement of paper PMC12764529.
± gives the half width of the 95% confidence interval.

Legend:
[1] = folding stability dG unfold from trypsin proteolysis; higher = more stable
Outline: (§1)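 Sequencing followed digestion of designed mini-proteins with trypsin and chymotrypsin, each at 11 concentrations in threefold dilutions together with a no-protease condition. The mini-proteins were under 80 residues, had no cysteine, sat in a PA-tagged cDNA display construct, and were kept only if AlphaFold2 dimer inter-PAE was above 15. From the counts, Bayesian fitting gave K50, and unfolding free energy was derived against a sequence-predicted unfolded-state K50 and a shared folded-state K50, per protease or combined.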

[2] = folding stability dG unfold (combined trypsin and chymotrypsin); higher = more stable
Outline: as §1

[3] = folding stability dG unfold from chymotrypsin proteolysis; higher = more stable
Outline: as §1

Sequence	folding stability dG unfold [1]	folding stability dG unfold [2]	folding stability dG unfold [3]
SAGGSAGGSAGGSGMKYKVTVTFPGGEVRSLEVDSVEEALEKLKEENRPIKEVTVEPLESAGGSAGGSAGGS [r4_213_JUSTAS]	2.2 ± 0.14 kcal/mol	2.44 ± 0.16 kcal/mol	2.54 ± 0.13 kcal/mol
SAGGSAGGSAGGSGMTSTTYRLPEGNVVLVETFDPATGTVTLEIRGPPSVERTLTLPVASAGGSAGGSAGGS [r4_443_JUSTAS]	2.63 ± 0.29 kcal/mol	3.21 ± 0.24 kcal/mol	3.64 ± 0.088 kcal/mol
SAGGSAGGSAGGSGMTTTLLEQREFTLPNGEPVRVTVARFPGGEIVTETEDGVVTTDPLSAGGSAGGSAGGS [r4_111_JUSTAS]	-0.134 ± 0.064 kcal/mol	0.159 ± 0.08 kcal/mol	0.281 ± 0.08 kcal/mol
SAGGSAGGSAGGSGMTYRTVEIEVRLPEVPGKTVKITIVVPEGATEEEIKALAEELARKSAGGSAGGSAGGS [r4_442_TrROS_Hall]	2.87 ± 0.14 kcal/mol	2.94 ± 0.12 kcal/mol	2.88 ± 0.039 kcal/mol
SAGGSAGGSAGGSGNPVVRVFEFDDYIAVVTFNPGDGSVEVLSVGKVPPAAIPGSPELSSAGGSAGGSAGGS [r4_21_TrMRF]	1.08 ± 0.024 kcal/mol	1.17 ± 0.036 kcal/mol	1.16 ± 0.033 kcal/mol
SAGGSAGGSAGGSGPPSLPGVLVEIPEPLPGPEGTEFSDPKGYKYTYDPSNGKVLVERASAGGSAGGSAGGS [r4_78_JUSTAS]	-0.753 ± 0.17 kcal/mol	-0.242 ± 0.19 kcal/mol	-0.0458 ± 0.16 kcal/mol
SAGGSAGGSAGGSGPSVTVSTTTLPPLPVTVETVTVGDTTVLVVFTPEGGSAVVPSGALSAGGSAGGSAGGS [r4_256_JUSTAS]	1.96 ± 0.091 kcal/mol	1.4 ± 0.087 kcal/mol	0.858 ± 0.02 kcal/mol
SAGGSAGGSAGGSGPSVVLVSLPDGSYIAFPSGADVNIEIPSSSSGARIVAVIPLSELSSAGGSAGGSAGGS [r4_122_TrMRF]	0.111 ± 0.059 kcal/mol	0.518 ± 0.11 kcal/mol	0.714 ± 0.024 kcal/mol
SAGGSAGGSAGGSGSMSVSGGPSVIVVTLPGGEKVVLPLDELDELYKLPYVSATTVSLPSAGGSAGGSAGGS [r4_348_JUSTAS]	1.45 ± 0.065 kcal/mol	1.13 ± 0.14 kcal/mol	0.24 ± 0.18 kcal/mol
SAGGSAGGSAGGSGSVRIKVYNPKTGEVLELEVPEELVPAAVEAAKALGFEKVEVSPGKSAGGSAGGSAGGS [r4_102_TrMRF]	1.59 ± 0.065 kcal/mol	2.49 ± 0.13 kcal/mol	2.91 ± 0.077 kcal/mol
SAGGSAGGSAGGSGVLNIDEVWEDPESDLYTVVTTGEDEGTRVFVFDKNGKLLAEADLPSAGGSAGGSAGGS [r4_259_TrMRF]	0.274 ± 0.034 kcal/mol	0.443 ± 0.1 kcal/mol	0.405 ± 0.12 kcal/mol
SAGGSAGGSAGGSIEINIMFELPNGLIFRISTTIEPNPDGNLKLDIDIEVIPIKPGQPISAGGSAGGSAGGS [r10_241_TrROS]	3.11 ± 0.14 kcal/mol	3.96 ± 0.23 kcal/mol	4.19 ± 0.13 kcal/mol
SAGGSAGGSAGGSIEPITIILPDKIIRIYRFEDGTIVEIIDPETGKPTFISLEDAKKLIGSAGGSAGGSAGG [r7_372_TrMRF]	2.33 ± 0.14 kcal/mol	2.61 ± 0.16 kcal/mol	2.81 ± 0.043 kcal/mol
SAGGSAGGSAGGSIVVRITPNPETGTVTIDVYRVLPPGVLRPGAGFTVPLSLIPPGAVVGSAGGSAGGSAGG [r7_455_TrMRF]	0.973 ± 0.018 kcal/mol	1.09 ± 0.053 kcal/mol	1.17 ± 0.047 kcal/mol
SAGGSAGGSAGGSKDITITHEHNPNGWYRVKIRFPDNGKKIEIWVPAGRSVEEALDWLFSAGGSAGGSAGGS [r4_393_TrROS]	3.06 ± 0.12 kcal/mol	3.25 ± 0.12 kcal/mol	3.2 ± 0.038 kcal/mol
SAGGSAGGSAGGSKELTVLVVEKNEDGTLTVRKFKIELKDGELKIVEEEEKTVPLEELKSAGGSAGGSAGGS [r4_389_TrROS_Hall]	1.41 ± 0.074 kcal/mol	2.04 ± 0.12 kcal/mol	2.42 ± 0.037 kcal/mol
SAGGSAGGSAGGSKETVKIAIKVKPGEKEITIEIKGKKYKVKVEEKDGLLYLTVSKEDLSAGGSAGGSAGGS [r4_430_TrROS_Hall]	4.4 ± 0.54 kcal/mol	3.34 ± 0.32 kcal/mol	3.44 ± 0.22 kcal/mol
SAGGSAGGSAGGSKIRLKINMTEEELKELLKKLFPNAKVTRIERKKDGSIYVEIELEPESAGGSAGGSAGGS [r4_95_TrROS_Hall]	2.94 ± 0.11 kcal/mol	3.09 ± 0.11 kcal/mol	3.23 ± 0.082 kcal/mol
SAGGSAGGSAGGSKKKKIIIVVPKEELSEEQIKALKDLGYEIEIVEVEKKPVKVKKKKKSAGGSAGGSAGGS [r4_294_TrROS_Hall]	0.62 ± 0.068 kcal/mol	1.53 ± 0.22 kcal/mol	2.08 ± 0.12 kcal/mol
SAGGSAGGSAGGSKKKVLYIKIDVKPNMTPEEVAKLLQEKFGVKIKKVEVENGYLKIYFSAGGSAGGSAGGS [r4_469_TrROS_Hall]	2.82 ± 0.062 kcal/mol	3.49 ± 0.048 kcal/mol	3.8 ± 0.044 kcal/mol
SAGGSAGGSAGGSKKYFFKIKKIKVETKLEVNEDGSLTEEKKIEIEIELRELPSLEDLLSAGGSAGGSAGGS [r4_450_TrROS_Hall]	3.56 ± 0.25 kcal/mol	4.16 ± 0.2 kcal/mol	4.62 ± 0.17 kcal/mol

Sequence	folding stability dG unfold [1]	folding stability dG unfold [2]	folding stability dG unfold [3]
SAGGSAGGSAGGSKPKVKITIEKNKETNEYTITIEKDGKKYTFVVKNLKPDDPAIKKALSAGGSAGGSAGGS [r4_328_TrROS_Hall]	1.1 ± 0.043 kcal/mol	2.55 ± 0.09 kcal/mol	3.007 ± 0.03 kcal/mol
SAGGSAGGSAGGSKTVLLKVNGKLVLKELKVEVELEAEPETTTTTTTTTTLKPGETKTLSAGGSAGGSAGGS [r4_215_TrROS_Hall]	-0.499 ± 0.17 kcal/mol	0.109 ± 0.096 kcal/mol	0.397 ± 0.11 kcal/mol
SAGGSAGGSAGGSKTYRIYFKDNNKVITVKSKEDLKAALEKAGYTISEEDLDKIVKIEPSAGGSAGGSAGGS [r4_104_TrROS_Hall]	1.69 ± 0.046 kcal/mol	1.8 ± 0.087 kcal/mol	1.81 ± 0.07 kcal/mol
SAGGSAGGSAGGSLAFEGSFRFRKLKLTFKRKLTRTRPDGEPEEFEEELELEVEVVLPVSAGGSAGGSAGGS [r4_418_TrMRF]	3.77 ± 0.09 kcal/mol	4.21 ± 0.4 kcal/mol	4.84 ± 0.15 kcal/mol
SAGGSAGGSAGGSLEAIRKAIEEAQKNGHTVPISVRHPNGKDFTFEIEIQVVKPPPDEKSAGGSAGGSAGGS [r10_573_TrROS]	1.28 ± 0.043 kcal/mol	1.46 ± 0.13 kcal/mol	1.47 ± 0.066 kcal/mol
SAGGSAGGSAGGSLEIEITFELPDDVRLRIRARIEPLPDGSLKVEVEIELIPVKPDEDLSAGGSAGGSAGGS [r10_241_TrMRF]	3.17 ± 0.15 kcal/mol	3.09 ± 0.21 kcal/mol	2.9 ± 0.089 kcal/mol
SAGGSAGGSAGGSLETRPVLLILKDEEGKPYAVARLEVRELPNGGVEVTVTEIVPAEELSAGGSAGGSAGGS [r4_117_TrMRF]	0.912 ± 0.035 kcal/mol	1.36 ± 0.11 kcal/mol	1.5 ± 0.095 kcal/mol
SAGGSAGGSAGGSLPLILRLAEENGFSVSAVPIPETGTYKAVVTLPDGKPITIELPLTLSAGGSAGGSAGGS [r4_121_TrMRF]	0.295 ± 0.12 kcal/mol	0.804 ± 0.2 kcal/mol	1.04 ± 0.33 kcal/mol
SAGGSAGGSAGGSMATITPEGDKYLVTITNPDGSTTTKEFDSLEEVKKLPSSYPIEFSDSAGGSAGGSAGGS [r4_447_JUSTAS]	2.11 ± 0.065 kcal/mol	1.52 ± 0.094 kcal/mol	0.802 ± 0.026 kcal/mol
SAGGSAGGSAGGSMIIRIETKDGKIIEIEIKEDEDKTPEEIAKELAKKYNIKKIEIFEPSAGGSAGGSAGGS [r4_116_TrROS_Hall]	3.27 ± 0.12 kcal/mol	3.44 ± 0.096 kcal/mol	3.57 ± 0.062 kcal/mol
SAGGSAGGSAGGSMITIEVTTPTEKHTIEVPEDEVPEEELIERAKKLFPDVEKITILKESAGGSAGGSAGGS [r4_235_JUSTAS]	0.65 ± 0.037 kcal/mol	0.636 ± 0.08 kcal/mol	0.613 ± 0.059 kcal/mol
SAGGSAGGSAGGSMIVVPVTSNEVVDNLGGPVTVPAGTVIIIERTENSVKVEVLPPEKLSAGGSAGGSAGGS [r10_353_JUSTAS]	0.917 ± 0.048 kcal/mol	0.643 ± 0.11 kcal/mol	0.353 ± 0.019 kcal/mol
SAGGSAGGSAGGSMKEVTITLTDPETGKVSTLVLKLSPEEIEKAAEELAKSSGKKVTIRSAGGSAGGSAGGS [r4_301_JUSTAS]	1.04 ± 0.068 kcal/mol	1.78 ± 0.13 kcal/mol	1.99 ± 0.066 kcal/mol
SAGGSAGGSAGGSMKIEIVTNDPKKAEEIKEKLEKEGYPKKKNPINIEVKEISEEELLKSAGGSAGGSAGGS [r4_281_JUSTAS]	-0.113 ± 0.085 kcal/mol	0.533 ± 0.16 kcal/mol	0.628 ± 0.053 kcal/mol
SAGGSAGGSAGGSMLPPDTTVTSTTFLPNGTVVNTTTTYTATPDDTYTVTTTTTTTPLTSSAGGSAGGSAGG [r7_249_JUSTAS]	0.765 ± 0.037 kcal/mol	0.766 ± 0.11 kcal/mol	0.631 ± 0.16 kcal/mol
SAGGSAGGSAGGSMLVELDENGKTLTIYDEETQELIEVEVEPAPPVEETVTEVSEEELKSAGGSAGGSAGGS [r4_56_TrROS_Hall]	0.666 ± 0.098 kcal/mol	0.375 ± 0.26 kcal/mol	0.000558 ± 0.08 kcal/mol
SAGGSAGGSAGGSMPENLVTITTETTVVKSPLANPVNESPVWEVEVISSPVTVVPPSLLSAGGSAGGSAGGS [r4_417_JUSTAS]	1.25 ± 0.087 kcal/mol	0.812 ± 0.1 kcal/mol	0.0877 ± 0.12 kcal/mol
SAGGSAGGSAGGSMSGVFSTETVFLEKTLPDGSRVEALTTIETYLPLPPLPPFKFPSAVSAGGSAGGSAGGS [r4_325_JUSTAS]	0.13 ± 0.1 kcal/mol	0.437 ± 0.26 kcal/mol	0.415 ± 0.13 kcal/mol
SAGGSAGGSAGGSMSSSSSPLPDEDGLVTRGKSSEPSPPFTWTTTVDSSGVPSTTVTSLESAGGSAGGSAGG [r7_187_JUSTAS]	-0.484 ± 0.1 kcal/mol	0.323 ± 0.07 kcal/mol	0.602 ± 0.051 kcal/mol
SAGGSAGGSAGGSMTITYDKENKTLTIKLPNGKKVLTVNLENMTPEQLKELAKKLGLEVSAGGSAGGSAGGS [r4_49_TrROS_Hall]	3.18 ± 0.2 kcal/mol	3.44 ± 0.11 kcal/mol	3.62 ± 0.076 kcal/mol
SAGGSAGGSAGGSMTTVTLPDAVSTNVTTTKLPDNTTKVDITTTFPDGSTRSSTITINPSAGGSAGGSAGGS [r4_452_JUSTAS]	-0.305 ± 0.049 kcal/mol	0.908 ± 0.07 kcal/mol	1.32 ± 0.05 kcal/mol
